Values belong to the substance of their own block, whether it stands above or below them.
What was measured:
Test in all cases: affinity purification with mass spectrometry; GFP pull-down (µMACS/MultiMACS GFP Isolation Kit beads) from thylakoid membranes of GFP-labelled Syn7942 strains solubilised with 1% digitonin; label-free LC-MS/MS, abundances normalised to GFP, WT strain as control, triplicates
[1] = molecular target: PsaE of Photosystem I labelled with enhanced GFP (PSI–GFP) (Synechococcus elongatus PCC 7942) (UniProt Q31NL7)
[2] = molecular target: PsbB (CP47) of Photosystem II labelled with enhanced GFP (PSII–GFP) (Synechococcus elongatus PCC 7942) (UniProt P31094)
[3] = molecular target: PetA of Cytochrome b6f labelled with enhanced GFP (Cyt b6f–GFP) (Synechococcus elongatus PCC 7942) (UniProt Q31NV8)
Sequence of UniProt Q31NV8 (Q31NV8 31-324): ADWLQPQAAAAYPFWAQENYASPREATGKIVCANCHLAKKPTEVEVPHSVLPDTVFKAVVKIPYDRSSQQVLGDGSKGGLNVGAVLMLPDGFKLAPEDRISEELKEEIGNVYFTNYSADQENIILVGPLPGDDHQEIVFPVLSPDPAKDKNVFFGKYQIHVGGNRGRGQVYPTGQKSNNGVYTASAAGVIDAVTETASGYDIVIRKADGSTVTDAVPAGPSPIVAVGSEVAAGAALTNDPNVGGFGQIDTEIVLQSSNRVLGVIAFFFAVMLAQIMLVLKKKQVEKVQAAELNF

Sequence of UniProt P31094 (P31094 whole entry): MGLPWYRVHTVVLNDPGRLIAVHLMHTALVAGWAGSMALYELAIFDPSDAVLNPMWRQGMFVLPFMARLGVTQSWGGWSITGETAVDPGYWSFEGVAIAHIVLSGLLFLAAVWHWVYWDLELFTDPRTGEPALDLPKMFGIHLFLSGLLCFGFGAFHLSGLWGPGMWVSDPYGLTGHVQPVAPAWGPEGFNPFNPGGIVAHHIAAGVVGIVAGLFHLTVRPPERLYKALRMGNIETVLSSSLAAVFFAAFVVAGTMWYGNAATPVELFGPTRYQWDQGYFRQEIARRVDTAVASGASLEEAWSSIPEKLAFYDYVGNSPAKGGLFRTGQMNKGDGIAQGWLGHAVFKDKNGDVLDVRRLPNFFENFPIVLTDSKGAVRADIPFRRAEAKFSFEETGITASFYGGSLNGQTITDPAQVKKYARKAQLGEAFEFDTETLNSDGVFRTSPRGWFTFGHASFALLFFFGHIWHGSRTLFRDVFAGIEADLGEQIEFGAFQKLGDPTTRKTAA
Sequence of UniProt Q31NL7 (Q31NL7 whole entry): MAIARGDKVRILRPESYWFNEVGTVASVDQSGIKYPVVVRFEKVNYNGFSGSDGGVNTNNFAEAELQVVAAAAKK

percent of PSI associated with Cyt b6f [1]: 0.3%
percent of PSII associated with Cyt b6f [2]: 1.98%
Substance: Cytochrome b6f (Cyt b6f) (from UniProt Q31KG3 1-37) (complex)

percent of Cyt b6f associated with PSI [3]: 4.1%
percent of PSII associated with PSI [2]: 9.9%
Substance: Photosystem I (PSI) (from UniProt P0A421 1-139; P0A402 24-164; P0A426 5-83) (complex)

percent of Cyt b6f associated with PSII [3]: 2%
percent of PSI associated with PSII [1]: 1.72%
Substance: Photosystem II (PSII) (from UniProt P31094 1-508; Q31M07 29-136; Q31LM9 31-167; Q31LS7 1-40) (complex)
